Source: publication PMC10786891, “Massively parallel profiling of RNA-targeting CRISPR-Cas13d”

T1: EsCas13d, nuclease-dead (Eubacterium siraeum, UniProt B0MS50, R295A;H300A;R849A;H854A)
T1 sequence: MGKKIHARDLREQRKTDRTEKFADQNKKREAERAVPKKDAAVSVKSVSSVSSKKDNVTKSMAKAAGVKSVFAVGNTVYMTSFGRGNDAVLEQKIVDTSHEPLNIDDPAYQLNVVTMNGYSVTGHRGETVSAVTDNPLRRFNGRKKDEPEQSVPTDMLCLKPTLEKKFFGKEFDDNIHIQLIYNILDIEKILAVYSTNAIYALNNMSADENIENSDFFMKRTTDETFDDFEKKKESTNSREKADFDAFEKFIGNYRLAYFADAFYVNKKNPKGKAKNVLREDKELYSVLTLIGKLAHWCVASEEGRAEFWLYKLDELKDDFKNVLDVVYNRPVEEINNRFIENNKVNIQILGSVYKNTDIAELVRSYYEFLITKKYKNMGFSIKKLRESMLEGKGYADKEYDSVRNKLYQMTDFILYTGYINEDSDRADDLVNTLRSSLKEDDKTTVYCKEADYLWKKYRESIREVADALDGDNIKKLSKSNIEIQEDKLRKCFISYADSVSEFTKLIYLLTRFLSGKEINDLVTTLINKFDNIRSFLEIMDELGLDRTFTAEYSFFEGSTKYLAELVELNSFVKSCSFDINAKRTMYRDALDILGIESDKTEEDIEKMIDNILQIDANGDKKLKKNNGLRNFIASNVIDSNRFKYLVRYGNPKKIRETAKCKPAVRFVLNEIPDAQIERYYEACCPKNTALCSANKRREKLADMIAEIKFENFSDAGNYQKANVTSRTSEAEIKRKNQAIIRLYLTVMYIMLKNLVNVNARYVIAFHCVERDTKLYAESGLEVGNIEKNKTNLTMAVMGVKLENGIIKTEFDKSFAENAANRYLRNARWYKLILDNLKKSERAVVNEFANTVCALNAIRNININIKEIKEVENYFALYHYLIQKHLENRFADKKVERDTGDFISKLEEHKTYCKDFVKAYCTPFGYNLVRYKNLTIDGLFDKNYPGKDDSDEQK

B1: target 1 insA 3' of 13,insA 3' of 11 (mixed)
RNA 1: CACCCGUGCAAAAAUGCAGGGGUCUAAAACUGAGCGGAUAACCUCUCUAUGG
RNA 2: GGGAAUGGAUCCACAUCUACGAAUUCGUACCAUAGAGAGAGUAUAUCCGCUCACCGAGAUCGGAAGAGCACACGU
B2: target 1 insU 3' of 22,insG 3' of 14 (mixed)
RNA 1: CACCCGUGCAAAAAUGCAGGGGUCUAAAACUGAGCGGAUAACCUCUCUAUGG
RNA 2: GGGAAUGGAUCCACAUCUACGAAUUCGUACUCAUAGAGAGGGUUAUCCGCUCACCGAGAUCGGAAGAGCACACGU
B3: target 2 MT 5'PFS UCA 3'PFS CUC (mixed)
RNA 1: CACCCGUGCAAAAUUGCAGGGGUCUAAAACCUUCUCCAAAUUGUUUCAUCCU
RNA 2: GGGAAUGGAUCCACAUCUACGAAUUCUCAAGGAUGAAACAAUUUGGAGAAGCUCAGAUCGGAAGAGCACACGU
B4: target 2 MT 5'PFS CAU 3'PFS ACA (mixed)
RNA 1: CACCCGUGCAAAAUUGCAGGGGUCUAAAACCUUCUCCAAAUUGUUUCAUCCU
RNA 2: GGGAAUGGAUCCACAUCUACGAAUUCCAUAGGAUGAAACAAUUUGGAGAAGACAAGAUCGGAAGAGCACACGU
B5: target 2 MT 5'PFS GAC 3'PFS UAA (mixed)
RNA 1: CACCCGUGCAAAAUUGCAGGGGUCUAAAACCUUCUCCAAAUUGUUUCAUCCU
RNA 2: GGGAAUGGAUCCACAUCUACGAAUUCGACAGGAUGAAACAAUUUGGAGAAGUAAAGAUCGGAAGAGCACACGU
B6: target 2 MT 5'PFS UAU 3'PFS CAC (mixed)
RNA 1: CACCCGUGCAAAAUUGCAGGGGUCUAAAACCUUCUCCAAAUUGUUUCAUCCU
RNA 2: GGGAAUGGAUCCACAUCUACGAAUUCUAUAGGAUGAAACAAUUUGGAGAAGCACAGAUCGGAAGAGCACACGU
B7: target 2 MT 5'PFS GAC 3'PFS UAG (mixed)
RNA 1: CACCCGUGCAAAAUUGCAGGGGUCUAAAACCUUCUCCAAAUUGUUUCAUCCU
RNA 2: GGGAAUGGAUCCACAUCUACGAAUUCGACAGGAUGAAACAAUUUGGAGAAGUAGAGAUCGGAAGAGCACACGU
B8: target 2 MT 5'PFS GCA 3'PFS UAC (mixed)
RNA 1: CACCCGUGCAAAAUUGCAGGGGUCUAAAACCUUCUCCAAAUUGUUUCAUCCU
RNA 2: GGGAAUGGAUCCACAUCUACGAAUUCGCAAGGAUGAAACAAUUUGGAGAAGUACAGAUCGGAAGAGCACACGU
B9: target 2 MT 5'PFS UAU 3'PFS UUA (mixed)
RNA 1: CACCCGUGCAAAAUUGCAGGGGUCUAAAACCUUCUCCAAAUUGUUUCAUCCU
RNA 2: GGGAAUGGAUCCACAUCUACGAAUUCUAUAGGAUGAAACAAUUUGGAGAAGUUAAGAUCGGAAGAGCACACGU
B10: target 2 MT 5'PFS UAU 3'PFS UUG (mixed)
RNA 1: CACCCGUGCAAAAUUGCAGGGGUCUAAAACCUUCUCCAAAUUGUUUCAUCCU
RNA 2: GGGAAUGGAUCCACAUCUACGAAUUCUAUAGGAUGAAACAAUUUGGAGAAGUUGAGAUCGGAAGAGCACACGU
B11: target 2 MT 5'PFS CAU 3'PFS ACC (mixed)
RNA 1: CACCCGUGCAAAAUUGCAGGGGUCUAAAACCUUCUCCAAAUUGUUUCAUCCU
RNA 2: GGGAAUGGAUCCACAUCUACGAAUUCCAUAGGAUGAAACAAUUUGGAGAAGACCAGAUCGGAAGAGCACACGU
B12: target 2 MT 5'PFS UAU 3'PFS CAA (mixed)
RNA 1: CACCCGUGCAAAAUUGCAGGGGUCUAAAACCUUCUCCAAAUUGUUUCAUCCU
RNA 2: GGGAAUGGAUCCACAUCUACGAAUUCUAUAGGAUGAAACAAUUUGGAGAAGCAAAGAUCGGAAGAGCACACGU
B13: target 2 MT 5'PFS AUC 3'PFS AAC (mixed)
RNA 1: CACCCGUGCAAAAUUGCAGGGGUCUAAAACCUUCUCCAAAUUGUUUCAUCCU
RNA 2: GGGAAUGGAUCCACAUCUACGAAUUCAUCAGGAUGAAACAAUUUGGAGAAGAACAGAUCGGAAGAGCACACGU
B14: target 2 MT 5'PFS UAU 3'PFS CAG (mixed)
RNA 1: CACCCGUGCAAAAUUGCAGGGGUCUAAAACCUUCUCCAAAUUGUUUCAUCCU
RNA 2: GGGAAUGGAUCCACAUCUACGAAUUCUAUAGGAUGAAACAAUUUGGAGAAGCAGAGAUCGGAAGAGCACACGU
B15: target 2 MT 5'PFS CUG 3'PFS AUC (mixed)
RNA 1: CACCCGUGCAAAAUUGCAGGGGUCUAAAACCUUCUCCAAAUUGUUUCAUCCU
RNA 2: GGGAAUGGAUCCACAUCUACGAAUUCCUGAGGAUGAAACAAUUUGGAGAAGAUCAGAUCGGAAGAGCACACGU
B16: target 2 MT 5'PFS GAC 3'PFS UAU (mixed)
RNA 1: CACCCGUGCAAAAUUGCAGGGGUCUAAAACCUUCUCCAAAUUGUUUCAUCCU
RNA 2: GGGAAUGGAUCCACAUCUACGAAUUCGACAGGAUGAAACAAUUUGGAGAAGUAUAGAUCGGAAGAGCACACGU
B17: target 2 MT 5'PFS GAC 3'PFS UAC (mixed)
RNA 1: CACCCGUGCAAAAUUGCAGGGGUCUAAAACCUUCUCCAAAUUGUUUCAUCCU
RNA 2: GGGAAUGGAUCCACAUCUACGAAUUCGACAGGAUGAAACAAUUUGGAGAAGUACAGAUCGGAAGAGCACACGU
B18: target 2 MT 5'PFS UCA 3'PFS CUA (mixed)
RNA 1: CACCCGUGCAAAAUUGCAGGGGUCUAAAACCUUCUCCAAAUUGUUUCAUCCU
RNA 2: GGGAAUGGAUCCACAUCUACGAAUUCUCAAGGAUGAAACAAUUUGGAGAAGCUAAGAUCGGAAGAGCACACGU
B19: target 2 MT 5'PFS CAU 3'PFS UCC (mixed)
RNA 1: CACCCGUGCAAAAUUGCAGGGGUCUAAAACCUUCUCCAAAUUGUUUCAUCCU
RNA 2: GGGAAUGGAUCCACAUCUACGAAUUCCAUAGGAUGAAACAAUUUGGAGAAGUCCAGAUCGGAAGAGCACACGU
B20: target 2 MT 5'PFS GCA 3'PFS UAG (mixed)
RNA 1: CACCCGUGCAAAAUUGCAGGGGUCUAAAACCUUCUCCAAAUUGUUUCAUCCU
RNA 2: GGGAAUGGAUCCACAUCUACGAAUUCGCAAGGAUGAAACAAUUUGGAGAAGUAGAGAUCGGAAGAGCACACGU
B21: target 2 MT 5'PFS GCA 3'PFS UAA (mixed)
RNA 1: CACCCGUGCAAAAUUGCAGGGGUCUAAAACCUUCUCCAAAUUGUUUCAUCCU
RNA 2: GGGAAUGGAUCCACAUCUACGAAUUCGCAAGGAUGAAACAAUUUGGAGAAGUAAAGAUCGGAAGAGCACACGU
B22: target 2 MT 5'PFS UUA 3'PFS AUC (mixed)
RNA 1: CACCCGUGCAAAAUUGCAGGGGUCUAAAACCUUCUCCAAAUUGUUUCAUCCU
RNA 2: GGGAAUGGAUCCACAUCUACGAAUUCUUAAGGAUGAAACAAUUUGGAGAAGAUCAGAUCGGAAGAGCACACGU
B23: target 2 MT 5'PFS AAA 3'PFS UCC (mixed)
RNA 1: CACCCGUGCAAAAUUGCAGGGGUCUAAAACCUUCUCCAAAUUGUUUCAUCCU
RNA 2: GGGAAUGGAUCCACAUCUACGAAUUCAAAAGGAUGAAACAAUUUGGAGAAGUCCAGAUCGGAAGAGCACACGU
B24: target 2 MT 5'PFS UCA 3'PFS CUG (mixed)
RNA 1: CACCCGUGCAAAAUUGCAGGGGUCUAAAACCUUCUCCAAAUUGUUUCAUCCU
RNA 2: GGGAAUGGAUCCACAUCUACGAAUUCUCAAGGAUGAAACAAUUUGGAGAAGCUGAGAUCGGAAGAGCACACGU
B25: target 2 MT 5'PFS GCG 3'PFS CGC (mixed)
RNA 1: CACCCGUGCAAAAUUGCAGGGGUCUAAAACCUUCUCCAAAUUGUUUCAUCCU
RNA 2: GGGAAUGGAUCCACAUCUACGAAUUCGCGAGGAUGAAACAAUUUGGAGAAGCGCAGAUCGGAAGAGCACACGU
B26: target 2 MT 5'PFS CAU 3'PFS UCA (mixed)
RNA 1: CACCCGUGCAAAAUUGCAGGGGUCUAAAACCUUCUCCAAAUUGUUUCAUCCU
RNA 2: GGGAAUGGAUCCACAUCUACGAAUUCCAUAGGAUGAAACAAUUUGGAGAAGUCAAGAUCGGAAGAGCACACGU
B27: target 2 MT 5'PFS GCA 3'PFS UAU (mixed)
RNA 1: CACCCGUGCAAAAUUGCAGGGGUCUAAAACCUUCUCCAAAUUGUUUCAUCCU
RNA 2: GGGAAUGGAUCCACAUCUACGAAUUCGCAAGGAUGAAACAAUUUGGAGAAGUAUAGAUCGGAAGAGCACACGU
B28: target 2 MT 5'PFS AAA 3'PFS UCG (mixed)
RNA 1: CACCCGUGCAAAAUUGCAGGGGUCUAAAACCUUCUCCAAAUUGUUUCAUCCU
RNA 2: GGGAAUGGAUCCACAUCUACGAAUUCAAAAGGAUGAAACAAUUUGGAGAAGUCGAGAUCGGAAGAGCACACGU

What follows are binders tested against T1, EsCas13d, nuclease-dead (assay: crRNA (strand 1, pre-loaded); Mg2+; 40 mM Tris-HCl pH 7.5, 150 mM NaCl, 6 mM MgCl2, 1 mM DTT, 0.1% Tween-20, 0.2 mg/ml BSA; 25 C; 10 min per concentration, then washed). Conditions: tags: His6-TwinStrep-SUMO cleaved; N-terminal SNAP kept (SNAP-Surface 488); label: 3' end held by stalled T7 RNA polymerase.

Point of comparison: B9, Kd 33 ± 9 nM. Against it:
- B1 — 8.5-fold lower, 3.87 ± 0.21 nM
- B2 — 2.1-fold higher, 68 ± 22 nM
- B3 — 3.8-fold lower, 8.7 ± 2.2 nM
- B4 — 5.5-fold lower, 6 ± 1.2 nM
- B5 — 3.5-fold lower, 9.5 ± 1.8 nM
- B6 — within error, 47 ± 9 nM
- B7 — 4.4-fold lower, 7.5 ± 1 nM
- B8 — 2.7-fold lower, 12.3 ± 2.6 nM
- B10 — within error, 23.1 ± 3.1 nM
- B11 — 5.6-fold lower, 5.9 ± 0.7 nM
- B12 — 2.3-fold lower, 14.2 ± 1.5 nM
- B13 — within error, 25 ± 11 nM
- B14 — within error, 34 ± 7 nM
- B15 — 14-fold lower, 2.3 ± 0.4 nM
- B16 — 3.1-fold lower, 10.8 ± 2.4 nM
- B17 — within error, 27 ± 8 nM
- B18 — 5.2-fold lower, 6.3 ± 1.7 nM
- B19 — 4.1-fold lower, 8.1 ± 0.7 nM
- B20 — 2.7-fold lower, 12.3 ± 2.1 nM
- B21 — 5.2-fold lower, 6.4 ± 1.3 nM
- B22 — within error, 31 ± 5 nM
- B23 — 4.5-fold lower, 7.3 ± 1.4 nM
- B24 — 4.5-fold lower, 7.3 ± 1.1 nM
- B25 — 2.8-fold lower, 12 ± 0.7 nM
- B26 — 5.2-fold lower, 6.4 ± 1.5 nM
- B27 — 3.1-fold lower, 10.7 ± 1.5 nM
- B28 — 6.7-fold lower, 4.9 ± 1.1 nM
